Several values for one entry are separate records, joined by “and”; a condition that tells them apart may be missing. Equal values may be shown once.
How the values were obtained:
[1] = target: holo-CCP2 (C-terminal domain-like carotenoid protein 2 from Tolypothrix sp. PCC 7601, with bound canthaxanthin) (Tolypothrix sp. PCC 7601); assay: SEC-MALS + other: SEC-SAXS; SEC-SAXS-MALS, Shodex KW802.5 column, 10 mM Na-phosphate pH 7.0, 100 mM NaCl, 20 °C; samples at 5 mg/mL (legend: apo tetramer sample 10 mg/mL); also run with reductant (5 mM TCEP)
[2] = target: holo-CCP2 (C-terminal domain-like carotenoid protein 2 from Tolypothrix sp. PCC 7601, with bound canthaxanthin) (Tolypothrix sp. PCC 7601); assay: SEC; analytical SEC on a Superdex 75 column; masses estimated with protein molecular weight standards
[3] = target: apo-CCP2 (C-terminal domain-like carotenoid protein 2 from Tolypothrix sp. PCC 7601, without carotenoid) (Tolypothrix sp. PCC 7601); assay: SEC-MALS + other: SEC-SAXS; SEC-SAXS-MALS, Shodex KW802.5 column, 10 mM Na-phosphate pH 7.0, 100 mM NaCl, 20 °C; samples at 5 mg/mL (legend: apo tetramer sample 10 mg/mL); also run with reductant (5 mM TCEP)
[4] = target: apo-CCP2 (C-terminal domain-like carotenoid protein 2 from Tolypothrix sp. PCC 7601, without carotenoid) (Tolypothrix sp. PCC 7601); assay: SEC; analytical SEC on a Superdex 75 column; masses estimated with protein molecular weight standards

| Substance | stoichiometry N [1] | stoichiometry N [2] | stoichiometry N [3] | stoichiometry N [4] |
| --- | --- | --- | --- | --- |
| holo-CCP2 (C-terminal domain-like carotenoid protein 2 from Tolypothrix sp. PCC 7601, with bound canthaxanthin) (natural protein) | 2 and 4 | 2 and 4 |  |  |
| apo-CCP2 (C-terminal domain-like carotenoid protein 2 from Tolypothrix sp. PCC 7601, without carotenoid) (natural protein) |  |  | 2 and 3 and 4 | 2 and 4 |
